Results taken from the supplement of paper PMC12042874.
± gives the uncertainty stated by the source.

Assay: amyloid nucleation score (Sup35N fusion, yeast selection) (log enrichment); library NNK2; higher = more nucleation; inactive = no reads after selection
Method in brief: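 Output and input plasmid inserts were sequenced by Illumina after psi-negative yeast carrying Sup35N fused to peptides of 20 random codons had been induced 24 hours with 100 μM copper sulfate and grown 7 days at 30°C on medium lacking adenine and uracil. The nucleation score is the DiMSum log enrichment of output over input reads, centred on the mode score of non-aggregating sequences. Sequences with under 100 input reads were excluded.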

| Substance | amyloid nucleation score |
| --- | --- |
| NSSWSAPSLCLCM | 9.527 ± 0.045 |
| KVIPVALNTRIAWGTHRLMM | 0.958 ± 0.27 |
| CTDQRGLSIIVLGYNSHSMR | 5.682 ± 0.054 |
| RADPVRVYSCVEVLGRALLG | inactive |
| GSIYTCCGAGRKQNVGPKYL | 2.25 ± 0.1 |
| IKRSMCICY | 0.089 ± 1.1 |
| LGDRCNS | 2.36 ± 0.11 |
| FVLWIRYALRVTDYTVYMGA | 0.436 ± 0.39 |
| WLPNQVKGHLSFRMCSDIRH | 4.334 ± 0.035 |
| FILVYTRPTLESLGEWWIRC | -0.628 ± 0.63 |
| RKVLLVGCCPLVLKIVFCSV | 7.734 ± 0.048 |
| LILTFLEWNLFFYSFNIFTY | 5.39 ± 0.078 |
| GLFSSGRFVSADSM | -0.368 ± 0.54 |
| ISLFDYGQGMFHRCFMAVKG | -0.131 ± 0.6 |
| GVTWTV | -0.104 ± 0.25 |
| DIWIMI | -0.225 ± 0.45 |
| TCNSGRYSRAACAWWN | -0.114 ± 0.45 |
| MRRTPFCVWKHIYRM | 0.182 ± 1.1 |
| RYSATLYPTVPPDPLSAWAL | 3.8 ± 0.057 |
| KSDQLGCRLVDRGNCFSNRL | inactive |
| FFFFTNRVTKAVSYGYLMDD | -0.491 ± 0.63 |
| KRAMPLSLTSRRLWISSGTG | -0.708 ± 1.1 |
| VGFISDNYYWYNPKVNGIWV | -0.834 ± 0.27 |
| THMSEDGFVL | 0.072 ± 0.34 |
| RDGKDRAYCGW | 0.483 ± 0.5 |

| Substance | amyloid nucleation score |
| --- | --- |
| TACSQVVGVIHIIVGRGRSR | 7.292 ± 0.045 |
| NGVLRDHWTMAQTCAGVECS | -0.403 ± 1.1 |
| TRDCHYMVGRLMIEWFQSVW | -0.063 ± 0.21 |
| HSFHTVSTARRLKQDPYMR | -0.387 ± 0.64 |
| TFMRKCIFMFLFVIFSFYSS | 2.03 ± 0.11 |
| PLQPTQTYPFNSVFDGHKRV | inactive |
| AFDLLDD | 0.904 ± 0.33 |
| NRMFLLVLFVEL | 0.572 ± 0.27 |
| RFRGGSKSGLYFIVCISDVW | -0.758 ± 0.44 |
| LCRIDRVWQLGYRWLYQDVV | 4.34 ± 0.084 |
| VTKILCSRTWGKSG | 0.325 ± 0.44 |
| RCFSRNFEECFENAYTWV | -1.07 ± 0.33 |
| KVFSNIVMLLSVRLCCLMKI | -1.58 ± 1.1 |
| FDVESMSNDLMAQWHKMLAC | -0.452 ± 0.48 |
| VRQRNNWFTMVIVCVISVMA | 3.52 ± 0.13 |
| VLMKGRDPSVSGLKIEYLGN | 0.193 ± 0.19 |
| RIFTFLSVSHPN | 4.53 ± 0.053 |
| FCSSFEEYICLNYVIRSEWM | 3.82 ± 0.095 |
| FMNANRRVKKGQRVKRWTYS | 0.045 ± 0.79 |
| CRGTIWIAYSRYYYYRMNDF | inactive |
| GYEASHSRFASSHLTPWGKR | 1.74 ± 0.32 |
| LKLYPGIFIICVRTMDFVFW | inactive |
| HKETSFDGHFAICWCYTCRH | 5.216 ± 0.046 |
| IKSLSMRYFIRLFRY | inactive |
| LYHYPS | inactive |

| Substance | amyloid nucleation score |
| --- | --- |
| NWGAWLNWFNLVIYGCRVIN | 6.03 ± 0.079 |
| LICGARYINFSGKGNY | 0.023 ± 0.29 |
| IELFVSWKIGWVELRDVLLV | -0.055 ± 0.55 |
| LCGMLYAAAGHWFSVMPPGD | 0.997 ± 0.32 |
| LNTIFTKIIGFSA | -1.52 ± 0.49 |
| TSWSLVVVKVDIWPNQSVWV | -0.391 ± 0.55 |
| SVGIVSSDRCLCLMSM | 1.3 ± 0.39 |
| YLQVWYTREFYIFRGKMDLL | inactive |
| NKNRKQSLDKPS | -0.493 ± 1.1 |
| NFGIKWIVFLKL | -0.861 ± 0.28 |
| SFVTTKSSFL | -0.205 ± 0.74 |
| VIGCAQWFYFADMRGMPRNQ | 4.95 ± 0.076 |
| IYYNGFVQCGLLIEGLITSY | 2.39 ± 0.092 |
| FIMCSDYPYHITPYPWLGPG | -0.59 ± 0.37 |
| SLSFLKSGPLA | inactive |
| MVAFNTFSD | inactive |
| IFRAYIAGKTIYRCDQYVGM | -0.539 ± 0.55 |
| TNFYWY | 3.23 ± 0.065 |
| FFGLFFNFLLMLINLPKCIV | -1.78 ± 0.75 |
| DKIVI | -0.978 ± 0.54 |
| WSFLYE | -0.548 ± 0.33 |
| NLVLRPR | inactive |
| SVDYLCFVFNGGRSSSECQY | 7.755 ± 0.032 |
| RVYDGAVVR | 0.547 ± 0.34 |
| VILAIGNFSRI | 3.08 ± 0.081 |

| Substance | amyloid nucleation score |
| --- | --- |
| FWQNCMALLFRFIMFKRKNV | -1.27 ± 1 |
| SYSLIVE | 0.919 ± 0.48 |
| RVFSLDWVIERMSVEFHSWG | inactive |
| CASNQCTGP | 3.28 ± 0.065 |
| IWPMEWNCTMDYRSPWMRHR | 2.06 ± 0.07 |
| VLTALVYVEITF | 5.41 ± 0.066 |
| AVLLTMWYLNICTHIWVQTL | 0.139 ± 0.33 |
| QCYVIYS | 4.513 ± 0.029 |
| SMRVYHSHLNWFH | 6.63 ± 0.063 |
| IESRL | inactive |
| WNVFKLSGSSYV | -0.483 ± 0.31 |
| AYSEPAISQRFFLSGLKSII | -0.885 ± 0.34 |
| TDGVLFQLVDSKFV | -1.25 ± 0.64 |
| KIFFKNDGAGSVWPSNKLYF | -1.29 ± 1 |
| RVLSGRLTTNVDARGCELDR | 1.3 ± 0.29 |
| AAGRDVARAFGSLVQKLGVG | 4.88 ± 0.097 |
| ELVVPQWGQRRVHDLVCVEP | 1.75 ± 0.29 |
| KAANVAEDSR | 0.978 ± 0.47 |
| FVQCLWVAWGSSGSSWQKSE | 5.541 ± 0.041 |
| DRNMSVNI | 1.22 ± 0.44 |
| VFEYFRCPYIHNLLFFSAWL | 1.9 ± 0.19 |
| TGRISVSG | 0.14 ± 1 |
| AYYLFYTRGEFR | 3.2 ± 0.09 |
| AYKSYGKASSDWMWGLCSHH | -0.108 ± 0.56 |
| KIVGCGHSRMLIMTWC | 0.733 ± 0.56 |

| Substance | amyloid nucleation score |
| --- | --- |
| FVSRSLNSQGQWFRSMTECR | -0.517 ± 0.36 |
| GSLLDVTHRRKVLSKSMRGL | 0.016 ± 0.35 |
| FSIGGVKGEGSKFQGGSQMS | -0.12 ± 1 |
| IFSHFILCKQAAVCTVNEFR | 5.08 ± 0.072 |
| FRIHIWYGY | 0.244 ± 0.17 |
| SDCLGKSVVVYNLLGFGR | 4.791 ± 0.045 |
| MIWPCMVP | -0.237 ± 1 |
| SFQCSWIG | 3.04 ± 0.088 |
| WWFLKLDGRLPKLWAFLTMG | -0.22 ± 0.23 |
| DLGIYSLTNFKMLPST | 0.544 ± 0.52 |
| CTSVKQNDLKGSLIN | inactive |
| ASALGRWFTPHVSFIKYGGA | 0.531 ± 0.49 |
| VHSGLYAKCVRLYMQNFPHL | 0.192 ± 0.79 |
| PSRYAVLLCFGGVDTNVGIT | 4.967 ± 0.049 |
| LHRYRNAQVSWE | -0.512 ± 0.74 |
| TTDGNQAISVKLMTYLTRPL | -0.187 ± 0.41 |
| FLKSVSVRVGVILQAHAQEV | 0.375 ± 0.57 |
| YGKIL | -0.956 ± 1 |
| GTFIGVNLN | inactive |
| GIESSPFCFSLPGSATKRKQ | 0.485 ± 0.36 |
| RYFINSMFLGWTPFVSVNLS | -0.107 ± 0.27 |
| MVIYHVPQYVRYWQP | 0.017 ± 0.63 |
| HWERLIGNLM | -0.791 ± 0.36 |
| TETNRDWRLGDDW | 5.293 ± 0.047 |
| RITPFWYQRIYRIMY | -0.339 ± 0.22 |

| Substance | amyloid nucleation score |
| --- | --- |
| FCCSKLAPRTGYYSF | 7.12 ± 0.066 |
| RSELLRRKGILMYLLPGGGY | 0.009 ± 0.61 |
| VRISAMVITV | -0.684 ± 0.55 |
| LLLITVVIRCRSWVWGWLIS | -0.358 ± 0.74 |
| AFYIRLIAREP | inactive |
| FLRIVSNVLKWQRA | 2.83 ± 0.069 |
| KWSYSPVGKHYLYMMWDGHS | 0.409 ± 0.3 |
| DAWYMDFLSCACWIHWR | 0.871 ± 0.45 |
| FTIYCSYIFCQCWDTSEKSK | 8.593 ± 0.044 |
| LDYLGETNLLVRWHLAVTAS | 0.626 ± 0.16 |
| VFSNWVNVVWS | 5.172 ± 0.039 |
| TPAWQLYGHTVLAGVQKNMV | -0.077 ± 0.37 |
| GWVNRIYTRQLECSSLEYFF | 3.17 ± 0.11 |
| SFGRAENNSSARDMYV | -0.535 ± 0.28 |
| SHIPIWRKLSVQFSVKIVLE | -0.637 ± 1.1 |
| EFGYFYLAMKISTSRYKQNY | 1.41 ± 0.14 |
| TWSHTPNALWMDALRSTLQA | 1.05 ± 0.38 |
| CIYRHAFVLFTKPLNFGRVR | -0.166 ± 0.49 |
| MSQGSKIRVTWARSGGTRRL | 3.08 ± 0.15 |
| FLEFLDTMWW | -0.233 ± 0.56 |
| HTVTKVTLRLVCTMGCFKMM | 0.135 ± 0.65 |
| VNAPGTSYGYYVLNVQWGGW | 1.12 ± 0.26 |
| FREVSSLRCIIFLHITCRNS | 0.647 ± 0.57 |
| PLLSVVYTNLRSSDGRVV | 1.54 ± 0.31 |
| CLQVAKDADFCIKAVEERGW | 2.42 ± 0.19 |

| Substance | amyloid nucleation score |
| --- | --- |
| SSCYSVLGMRL | inactive |
| LVYFKRRLPTRLIANRRMNG | -0.845 ± 0.76 |
| RLLWLPLHSFMGMDTPSGVY | 0.448 ± 0.6 |
| YSLNWVQWEWELVCKWQGSL | 0.143 ± 0.35 |
| MLVLSSFNCRLFKINRLR | -0.268 ± 0.45 |
| YSLLLTIKPTTSWRCVSDGH | 2.27 ± 0.23 |
| VSFWFVFFWMISTRSEMMDR | -1.08 ± 0.53 |
| NSSMTRLGNTYLYHNNLHLV | -1.25 ± 0.76 |
| GRCWI | 1.39 ± 0.24 |
| CCVYAASLLPFQLVAALLTD | 0.91 ± 0.34 |
| GLVLWRRHFKAAASVSMQSW | 0.216 ± 0.4 |
| VCGVNV | -0.363 ± 1.1 |
| FHINAFISTWFSDNFCFCDY | 1.31 ± 0.22 |
| RVGTLKTISFHSNLNSNKIR | -0.614 ± 0.33 |
| MASAVNCESCISSGRVRFSG | 0.547 ± 0.81 |
| VQVCKMICRFISLWGLLA | 0.006 ± 0.44 |
| NCEPELLAVLSRCFSSIWVS | -1.27 ± 0.78 |
| QFCCVESLGLLALAWLFTGF | 3.62 ± 0.11 |
| KYVWSVEGKVAVAGVAMSCA | 0.025 ± 1.1 |
| ASREWASSVVLW | 0.427 ± 0.29 |
| SLHRFYYSHLYALRMRGNSR | 6.16 ± 0.091 |
| CCILVSWFGIHSRCGVRCAR | 0.877 ± 0.3 |
